Positions count from the first letter of the chain named.
B1: LK-RB2-8 (antibody, human IgG4 S228P, kappa, V domains shown)
VH: QIQLVQSGPELKKPGETVKISCKASGYSFASYGMGWVKQAPGKGLKWLGWINTHSGVPTYADDFKGRFAFSLETSASTAYLQINNLKNEDTATYFCAHYGRPWFPYWGQGTLVTVSA
VL: DIQMTQSPASLSASVGETVTITCRTSENIYSYLAWYQQKQGKSPQLLVYNAKSLAEGVPSRFSGSGSGTQFSLRINSLQPEDFGTYYCQQHYETPLTFGAGTKLELKR
B2: LK-RB2-16 (antibody, human IgG4 S228P, kappa, V domains shown)
VH: B1 VH with S28T, A30T, S31T, G42E, L48M, H54N, V57A, A61G, P105A
VL: B1 VL with T25A, Q37H, K42E, S53T, R74K, T85S, Q90H, E93N, T94I
B3: LK-RB2-5 (antibody, human IgG4 S228P, kappa, V domains shown)
VH: QIQLVQSGPELKKPGETVKISCKASGYTFTTYGMSWVKQAPGKGLKWMGWINTYSGVPTYADDFKGRFAFSLETSVSTAYLQINNLKNEDTATYFCARRDGYDGGGNFDYWGQGTTLTVSS
VL: DIVMTQSPATLSVTPGDRVSLSCRASQSISDYLHWYQQKSHESPRLLIKYASQSISGIPSRFSGSGSGSDFTLSINSVEPEDVGVYYCQNGHGFPWTFGGGTKLEIKR
B4: LK-RB2-24 (antibody, human IgG4 S228P, kappa, V domains shown)
VH: QIQLVQSGPEVKKPGETVKISCKASGYTFTTYGMSWVKQAPGKGLKWMGWLNIYSGVPAYADDFKGRFAFSLESSASTAYLQINNLKNEDTATYFCARRENYDGYGMDYWGQGTSVTVSS
VL: B3 VL with G93S, W96Y
B5: LK-RB2-12 (antibody, human IgG4 S228P, kappa, V domains shown)
VH: QIQLVQSGPELKKPGETVKISCKASGYTFTTYGMSWVKQTPGKGLKWMGWINIYSGVPTYADDFKGRFVFSLEISASTAHLQINNLKNEDTATYFCARRKDYSGHCFDYWGQGTTLTVSS
VL: DIVLTQSPASLAVSPGQRATISCRASESVDTYGISFMHWYQQKPGQPPKLLIYRASNLESGIPARFSGSGSRTDFTLTINPVETDDVAIYYCQQSKKDPYTFGGGTKLEIKR
B6: LK-RB2-15 (antibody, human IgG4 S228P, kappa, V domains shown)
VH: B5 VH with T40A, I53V, V69A, H80Y, N88D
VL: B5 VL with P15L, I21F, I89T, D98E
B7: 3C1 (antibody, human IgG4, kappa, V domains shown)
VH: EVQLVESGGGLVQPGGSLRLSCAASGFTFSDYDMHWVRQATGKGLEWVATIDTAGDTYYPDSVRGRFTISRENAKNSLSLQMNSLRAGDTAVYFCARDVPGTGFDHWGQGTLVTVSS
VL: SSELTQDPAVSVALGQTVRITCQGDSLRSYYESWYQQKPGQAPVLVIYGKNNRPSGIPDRFSGSISGNTASLTITGTQAEDEADYYCNSRDNSGDHWVFGGGTRLTVLG
B8: LK-RB1-59 (antibody, human IgG4 S228P, kappa, V domains shown)
VH: QIQLVQSGPELKKPGETVKISCKASGYTFTTYGMSWVKQAPGKGLKWMGWINTYSGVPTYADDFKGRFAFSLETSASTAYLQINNLKNEDTATYFCARRRIYYGNKGYAMDYWGQGTSVTVSS
VL: DIQMTQSPASLSVSVGETVTITCRASENIYSNLVWYQQKQGKSPQLLVYTATNLADGVPSRFSGSGSGTQFSLKINSLQSEDFGSYYCQHFWGTPWTFGGGTKLEIKR
B9: 15G8 (antibody, human IgG4 S228P, kappa, V domains shown)
VH: DVQLQGSGPGLVKPSETLSLTCSVTGYSITSGYYWNWIRQFPGKKLEWMGYISYDGSNNYNPSLKNRITISRDTSKNQFSLKLNSVTAADTATYYCAHGYSYYYAMDAWGQGTSVTVSS
VL: DIQMTQSPSSLSASVGDRVTITCRTSQDISNYLNWYQQKPGKAVKLLISYTSRLHSGVPSRFSGSGSGTDYTLTISSLQPEDFATYYCQQGNTLPTFGQGTKLEIKR
B10: LK-RB2-25 (antibody, human IgG4 S228P, kappa, V domains shown)
VH: QVQLKESGPGLVAPSQSLSITCTVSGFSLTSYGVHWVRQPPGKGLEWLGVIWAGGSTKYNSALMSRLSINKDNSKSQVFLKMNSLQTDDTAMYYCARDQMVRSAMDYWGQGTSVTVSS
VL: DIQMIQSPSSMFASLGDRVSLSCRASQGIRGNLDWYQQKPGGTIKLLIYSTSNLNSAVPSRFSGSGSGSDYSLTISNLESEDFADYYCLQRNASPYTFGGGTKLEIKR
B11: LK-RB2-47 (antibody, human IgG4 S228P, kappa, V domains shown)
VH: QVQLKQSGPGLVQPSQSLSITCTVSGFSLISYGVHWVRQSPGKGLEWLGVIWSGGSTDYNAAFISRLSISKDNSKSQVFFKMNSLQADDTAIYYCARSFHYHGSTFDYWGQGTTLTVSS
VL: DIQMTQTTSSLSASLGDRVIISCRASQDINNYLNWYQQKPDGTVKLLIYFTSRLHSGVPSSFSGSGSGTDYSLTINNLEQEDIATYFCQQVNTLPYTFGGGTKLEIKR
B12: LK-RB2-29 (antibody, human IgG4 S228P, kappa, V domains shown)
VH: QVQLQQSGAELARPGASVKLSCKASGYTFTSYWMQWVKQRPGQGLEWIGAIYPGDGDTRYTQKFKGKATLTADKSSSTAYMQLSSLASEDSAVYYCARGYYGSSYADYFDYWGQGTTLTVSS
VL: DIQMTQSPASLSASVGETVTITCRASGNIHNYLAWYQQKQGKSPQLLVYNAKTLADGVPSRFSGSGSGTQYSLKINSLQPEDFGSYYCQHFWSTPPTFGGGTKLEIKR
B13: LK-RB2-26 (antibody, human IgG4 S228P, kappa, V domains shown)
VH: B10 VH with K58D, S61A, L63F, M64I, S68N, N70S, N73I, K75E, L80F, K81R
VL: B10 VL
B14: LK-RB2-27 (antibody, human IgG4 S228P, kappa, V domains shown)
VH: DVKLVESGGGLVKPGGSLKLSCAASGFTFSSYSMSWVRQTPEKRLEWVATISTGGSYTYYPDSVKGRFTISRDNAKNTLYLQMSSLKSEDTAMFYCTRGSMDYWGQGTSVTVSS
VL: DILMTQSPSSMSVSLGDTVSITCHASQDISSNIGWLQQKPGNSFKGLIYHGTNLEDGVPSRFSGSGSGADYSLTISSLESEDFADYYCVQYAQFPYTFGGGTKLEIKR
B15: LK-RB2-28 (antibody, human IgG4 S228P, kappa, V domains shown)
VH: B14 VH with V64M
VL: B14 VL with T22A
B16: LK-RB2-34 (antibody, human IgG4 S228P, kappa, V domains shown)
VH: B14 VH with L4V, G55S, P61S
VL: B14 VL with T52I
B17: LK-RB2-30 (antibody, human IgG4 S228P, kappa, V domains shown)
VH: EVQLVESGGGLVQPGGSLKLSCAASGFTFNTDGMSWVRQTPDKRLELVAIINSNGGSTYYPDSVKGRFTISRDNAKNTLYLQMSSLKSEDTAMYYCAREGSYGSWFAYWGQGTLVTVSA
VL: B8 VL with Y30N, S31N, V34A, Q37H, T50A, F71Y, W96F
B18: LK-RB2-44 (antibody, human IgG4 S228P, kappa, V domains shown)
VH: EVQLVESGGDLVKPGGSLKLSCAASGFTFSSYGMSWVRQTPDKRLEWVATISGGGTYTYYPDSVKGRFTISRDNAKNTLYLQMSSLKSEDTAMYYCASGAMDYWGQGTSVTVSS
VL: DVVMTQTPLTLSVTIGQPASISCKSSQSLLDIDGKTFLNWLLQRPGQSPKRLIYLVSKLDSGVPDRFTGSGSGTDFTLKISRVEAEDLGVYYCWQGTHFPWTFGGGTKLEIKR
B19: LK-RB2-42 (antibody, human IgG4 S228P, kappa, V domains shown)
VH: EFQLQQSGPELVKPGASVKISCKASGYSFTDYNMNWVKQSNGKSLDWIGIINPKYGTTAYNQKLRDKATLTVDQSSSTAYMQLNSLTSEDSAVYYCASLNWDEGFAYWGQGTLVTVSP
VL: DVLMTQTPLSLPVSLGDQASISCRSSQSIVHSNGNTYLEWYLQKPGQPPKLLIYKVSNRFSGVPERFSGSGSGTDFTLKINRVEAEDLGVYYCFQGSLVPPTFGGGTKLEIKR

target: T1, human LILRB1 expressed on CHOK1 cells (CHOK1-hLILRB1) (human, UniProt Q8NHL6 24-650); assay: FACS binding to CHOK1-hLILRB1 cells
T1 construct: whole, on cells; also called CHOK1-LILRB1
T1 sequence (Q8NHL6 24-650): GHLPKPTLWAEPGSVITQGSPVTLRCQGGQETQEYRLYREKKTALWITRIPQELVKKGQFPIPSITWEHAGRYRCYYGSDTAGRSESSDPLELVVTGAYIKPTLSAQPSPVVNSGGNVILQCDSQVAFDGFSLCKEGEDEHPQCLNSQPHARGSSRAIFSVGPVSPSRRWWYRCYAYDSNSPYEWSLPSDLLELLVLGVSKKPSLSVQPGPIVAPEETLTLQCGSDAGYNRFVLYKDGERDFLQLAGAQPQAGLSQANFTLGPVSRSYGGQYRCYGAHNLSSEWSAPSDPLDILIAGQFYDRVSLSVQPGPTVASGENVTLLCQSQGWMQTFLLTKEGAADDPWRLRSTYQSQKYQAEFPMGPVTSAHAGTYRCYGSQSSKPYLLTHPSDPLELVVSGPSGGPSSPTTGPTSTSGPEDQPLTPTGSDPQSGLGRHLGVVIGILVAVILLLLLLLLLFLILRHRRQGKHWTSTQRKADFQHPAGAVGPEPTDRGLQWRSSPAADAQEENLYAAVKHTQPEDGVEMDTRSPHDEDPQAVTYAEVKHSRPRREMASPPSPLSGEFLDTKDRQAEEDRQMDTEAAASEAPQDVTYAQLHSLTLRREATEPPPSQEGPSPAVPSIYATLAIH

Row | EC50 [nM] | Binder
1 | 4.55 | B1
2 | 4.3 | B2
3 | 1.34 | B3
4 | 0.848 | B4
5 | 2.34 | B5
6 | 31.4 | B6
7 | 0.62 | B7
8 | 0.65 | B8
9 | 0.57 | B9

target: T2, human LILRB2 expressed on CHOK1 cells (CHOK1-hLILRB2) (human, UniProt Q8N423 22-597); assay: cell based RBA, flow cytometry: blocking of HLA-G binding to CHOK1-hLILRB2 cells
T2 construct: whole, on cells; also called CHOK1-LILRB2
T2 sequence (Q8N423 22-597): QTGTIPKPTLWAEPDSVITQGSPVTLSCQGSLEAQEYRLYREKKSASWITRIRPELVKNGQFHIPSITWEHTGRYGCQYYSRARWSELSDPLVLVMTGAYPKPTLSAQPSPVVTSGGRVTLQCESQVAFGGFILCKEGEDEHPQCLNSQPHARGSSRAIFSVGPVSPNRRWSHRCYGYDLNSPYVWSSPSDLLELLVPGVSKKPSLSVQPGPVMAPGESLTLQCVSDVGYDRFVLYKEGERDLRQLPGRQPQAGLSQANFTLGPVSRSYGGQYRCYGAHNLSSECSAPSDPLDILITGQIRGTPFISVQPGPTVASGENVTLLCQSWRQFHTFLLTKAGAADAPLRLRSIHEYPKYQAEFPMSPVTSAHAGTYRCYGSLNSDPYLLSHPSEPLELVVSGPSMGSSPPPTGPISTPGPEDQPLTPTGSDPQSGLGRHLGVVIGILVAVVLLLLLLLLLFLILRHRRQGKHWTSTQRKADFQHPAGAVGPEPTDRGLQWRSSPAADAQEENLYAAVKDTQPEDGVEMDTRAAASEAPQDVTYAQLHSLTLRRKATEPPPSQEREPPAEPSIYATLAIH

Row | EC50 [nM] | Top Inhibition [%] | Binder
10 | 0.0956 | 74.1 | B4
11 | 0.162 | 77.5 | B6

target: T2, human LILRB2 expressed on CHOK1 cells …; assay: FACS binding to CHOK1-hLILRB2 cells

Row | EC50 [nM] | binding result | Binder
12 | 7.23 | – | B1
13 | 6.01 | – | B2
14 | 0.27 | – | B3
15 | 0.18 | – | B4
16 | 0.16 | – | B5
17 | 0.16 | – | B6
18 | – | no binding | B7
19 | – | no binding | B8
20 | – | no binding | B9

target: T3, human LILRB1 (human, UniProt Q8NHL6 24-458, limits assumed); assay: Octet off-rate ranking;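 further: antibody dissociation rate constants against cynomolgus LILRB2 plus human LILRB1, LILRB2, LILRA1 and LILRA2, measured on an Octet instrument to rank binding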
T3 construct: also called hLILRB1
T3 sequence (Q8NHL6 24-458 limits assumed): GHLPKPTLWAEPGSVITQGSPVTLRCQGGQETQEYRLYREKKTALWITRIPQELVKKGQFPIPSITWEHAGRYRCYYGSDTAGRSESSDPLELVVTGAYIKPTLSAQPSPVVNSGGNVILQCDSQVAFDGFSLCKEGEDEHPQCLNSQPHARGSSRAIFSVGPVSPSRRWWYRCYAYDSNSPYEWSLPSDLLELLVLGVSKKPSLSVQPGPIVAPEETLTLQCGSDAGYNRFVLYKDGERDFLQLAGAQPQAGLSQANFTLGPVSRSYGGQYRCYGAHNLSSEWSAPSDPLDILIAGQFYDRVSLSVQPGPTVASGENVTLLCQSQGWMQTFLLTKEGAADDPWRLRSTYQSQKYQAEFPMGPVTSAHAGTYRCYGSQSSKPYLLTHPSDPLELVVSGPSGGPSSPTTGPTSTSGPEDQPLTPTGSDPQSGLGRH
Description: (§1) Binding affinity of anti-LILRB1 and anti-LILRB2 antibodies against human LILRB1, LILRB2, LILRA1, LILRA2 and cynomolgus LILRB2 was ranked by measuring dissociation rate constant (Kdis) using the Octet system.

Row | koff [s⁻¹] | Binder
21 | 0.000609 | B10

target: cynomolgus LILRB2 (cynomolgus); assay: Octet off-rate ranking;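 further: antibody dissociation rate constants against cynomolgus LILRB2 plus human LILRB1, LILRB2, LILRA1 and LILRA2, measured on an Octet instrument to rank binding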
Sequence (chain, as listed by the source): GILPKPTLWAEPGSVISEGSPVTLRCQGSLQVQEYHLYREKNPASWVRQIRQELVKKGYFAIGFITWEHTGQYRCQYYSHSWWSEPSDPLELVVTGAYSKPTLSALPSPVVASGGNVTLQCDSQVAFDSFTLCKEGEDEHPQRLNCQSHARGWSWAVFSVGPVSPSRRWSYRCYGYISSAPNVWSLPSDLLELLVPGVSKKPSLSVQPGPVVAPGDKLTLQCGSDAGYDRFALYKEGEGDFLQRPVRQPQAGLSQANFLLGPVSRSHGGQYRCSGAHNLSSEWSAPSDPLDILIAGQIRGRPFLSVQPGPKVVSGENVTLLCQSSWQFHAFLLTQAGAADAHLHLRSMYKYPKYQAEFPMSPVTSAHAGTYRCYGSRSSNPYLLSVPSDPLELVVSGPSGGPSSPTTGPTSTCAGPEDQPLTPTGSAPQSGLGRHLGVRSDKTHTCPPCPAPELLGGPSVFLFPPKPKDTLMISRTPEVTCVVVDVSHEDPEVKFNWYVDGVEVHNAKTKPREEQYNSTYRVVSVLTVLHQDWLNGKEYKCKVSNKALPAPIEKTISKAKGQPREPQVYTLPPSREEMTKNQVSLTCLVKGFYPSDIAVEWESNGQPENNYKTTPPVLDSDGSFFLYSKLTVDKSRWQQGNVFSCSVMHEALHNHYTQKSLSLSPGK
Description: as §1

Row | koff [s⁻¹] | Binder
22 | 3.03e-05 | B11
23 | 0.000215 | B12
24 | 0.000424 | B10
25 | 0.00184 | B13
26 | 0.00109 | B14
27 | 0.00114 | B15
28 | 0.000673 | B16
29 | 2.01e-05 | B17
30 | 0.000346 | B18
31 | 0.000147 | B19

target: T1, human LILRB1 expressed on CHOK1 cells …; assay: cell based RBA, flow cytometry: blocking of HLA-G binding to CHOK1-hLILRB1 cells

Row | EC50 [nM] | Top Inhibition [%] | Binder
32 | 1.32 | 32.7 | B1
33 | 13.4 | 35.3 | B2
34 | 2.86 | 70.8 | B3
35 | 1.7 | 93.4 | B4
36 | 2.16 | 70.3 | B5
37 | 4.18 | 70.8 | B6
38 | 0.94 | 79.6 | B7
39 | 1.61 | 87.3 | B8
40 | 0.69 | 82.5 | B9
